{"source": "paper doi:10.1101/123679", "about": "(bioRxiv, 2017)", "binders": {"B1": {"name": "GFP-RTN20 (Arabidopsis reticulon 20) (natural protein, Arabidopsis thaliana, UniProt A9X4U2 1-561, looked up)", "chain": "MDEDSVHGDSHLKTCVVLGGRGFIGRSLVSRLLRLGNWTVRVADSGHTLHLDESDSLLEDALSSGRASYHCVDVRDKPQIVKVTEGSYVVFYMGATDLRSHDYFDCYKVIVQGTRNVISACRESGVRKLIYNSTADVVFDGSQPIRDGDESLRRPLKFQSMLTDFKAQAEALIKLANNRDGLLTCALRSSIVFGPGDTEFVPFLVNLAKSGYAKFILGSGENISDFTYSENVSHAHICAVKALDSQMEFVAGKEFFITNLKPVRFWDFVSHIVEGLGYPRPSIKLPVRLVLYVFSLLKWTHEKEGLGSNYDTAHQYALLASSTRTFNCNAAKKHLGYTPVVTLEDGIASTLQWFSRDLEKSDDTIIQSTADQLLGCGKVADILLWRNEKKTFVSFLVLNLFYYWFFFSGNTFTSSAAQLLFIFAVALYGVSFVPSKIFGFQVNKIPPWRFEISESAVRDLSSDIVVVWNQGVRSFKSLSSGGDWIKFFKIAGSLYLLKLIVSRSLAAFLFTVMSFSFTGFFIYEQYELELYHLARIFVECLTFIKRMVIPVSDASSKPMFM"}}, "assay_in_all_cases": "FRET or BRET", "key": {"[1]": {"target": "T1, mRFP-RTN1 (Arabidopsis reticulon 1) (Arabidopsis thaliana, UniProt Q9SUR3 1-275)", "T1 sequence (looked up)": "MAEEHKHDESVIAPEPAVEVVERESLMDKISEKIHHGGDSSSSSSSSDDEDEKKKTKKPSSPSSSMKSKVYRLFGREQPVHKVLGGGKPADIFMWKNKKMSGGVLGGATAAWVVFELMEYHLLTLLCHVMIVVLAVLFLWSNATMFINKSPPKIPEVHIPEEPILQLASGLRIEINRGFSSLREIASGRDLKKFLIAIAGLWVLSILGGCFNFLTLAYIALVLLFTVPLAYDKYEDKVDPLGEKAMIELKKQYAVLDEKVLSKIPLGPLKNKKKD"}, "[2]": {"target": "T2, RTN2 fused to mRFP (Arabidopsis reticulon 2) (Arabidopsis thaliana, UniProt Q9SUT9 1-271)", "T2 sequence (looked up)": "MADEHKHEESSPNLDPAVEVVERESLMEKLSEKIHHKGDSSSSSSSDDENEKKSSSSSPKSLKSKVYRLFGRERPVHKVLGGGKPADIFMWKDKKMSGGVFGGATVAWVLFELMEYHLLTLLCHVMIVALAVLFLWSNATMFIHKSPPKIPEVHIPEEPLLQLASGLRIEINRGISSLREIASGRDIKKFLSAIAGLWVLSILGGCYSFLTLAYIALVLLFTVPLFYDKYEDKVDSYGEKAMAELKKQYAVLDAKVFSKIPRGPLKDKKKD"}, "[3]": {"target": "T3, RTN3 fused to mRFP (Arabidopsis reticulon 3) (Arabidopsis thaliana, UniProt Q9SH59 1-255)", "T3 sequence (looked up)": "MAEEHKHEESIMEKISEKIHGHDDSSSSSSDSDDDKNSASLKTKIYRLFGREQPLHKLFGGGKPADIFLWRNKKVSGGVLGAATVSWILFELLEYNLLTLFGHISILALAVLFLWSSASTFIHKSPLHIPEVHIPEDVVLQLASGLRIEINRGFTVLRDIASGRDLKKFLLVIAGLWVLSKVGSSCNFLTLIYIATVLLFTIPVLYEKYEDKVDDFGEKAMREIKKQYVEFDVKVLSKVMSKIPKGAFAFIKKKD"}, "[4]": {"target": "T4, RTN19 fused to mRFP (Arabidopsis reticulon 19, 3BETAHSD/D2) (Arabidopsis thaliana, UniProt Q67ZE1 1-564)", "T4 sequence (looked up)": "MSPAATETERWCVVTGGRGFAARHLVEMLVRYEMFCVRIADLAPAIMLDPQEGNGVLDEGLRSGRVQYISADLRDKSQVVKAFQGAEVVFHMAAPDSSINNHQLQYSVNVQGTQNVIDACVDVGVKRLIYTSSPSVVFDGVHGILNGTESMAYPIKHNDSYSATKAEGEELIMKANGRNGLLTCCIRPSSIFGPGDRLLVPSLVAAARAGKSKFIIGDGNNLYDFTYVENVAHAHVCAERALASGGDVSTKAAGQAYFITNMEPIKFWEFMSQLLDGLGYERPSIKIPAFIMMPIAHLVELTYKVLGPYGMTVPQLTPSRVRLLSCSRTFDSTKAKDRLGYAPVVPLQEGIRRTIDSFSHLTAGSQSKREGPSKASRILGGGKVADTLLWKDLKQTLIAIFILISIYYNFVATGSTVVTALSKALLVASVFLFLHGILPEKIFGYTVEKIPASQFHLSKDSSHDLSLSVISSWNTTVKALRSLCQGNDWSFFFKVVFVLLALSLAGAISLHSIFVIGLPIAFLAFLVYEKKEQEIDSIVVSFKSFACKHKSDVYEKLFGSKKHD"}}}
{"binder": "B1", "values": [{"measurement": "fluorescence lifetime of the GFP donor (FRET-FLIM)", "setting": "[1]", "result": 2.21, "unit": "ns"}, {"measurement": "fluorescence lifetime of the GFP donor (FRET-FLIM)", "setting": "[2]", "result": 2.2, "unit": "ns"}, {"measurement": "fluorescence lifetime of the GFP donor (FRET-FLIM)", "setting": "[3]", "result": 2.2, "unit": "ns"}, {"measurement": "fluorescence lifetime of the GFP donor (FRET-FLIM)", "setting": "[4]", "result": 2.2, "unit": "ns"}]}
